3 substances from paper PMC4569726 can be followed below.

Test [1] deals with RSV F single-chain double mutant with fibritin trimerization domain (SC-DM: N67I, S215P) (respiratory syncytial virus strain A2 (subgroup A) | not stated). In words: SEC-MALS + native gel or EMSA; purified protein; SEC-MALS: 40 μg on TSK-Gel G3000SWxl in 150 mM NaPi, 50 mM NaCl, pH 7.0; NativePAGE Bis-Tris gel. (In general: SEC sorts molecules by how far they enter the pores of the column.)

The target in test [2] is RSV F single-chain triple mutant with fibritin trimerization domain (SC-TM: N67I, S215P, E487Q) (respiratory syncytial virus strain A2 (subgroup A) | not stated). The test is described as above.
For test [3], the target named is Soluble, stabilized processed RSV F variant with fibritin motif (PR-TM: N67I, S215P, D486N) (respiratory syncytial virus strain A2 (subgroup A) | not stated). In words: SDS-PAGE without reducing agents and without boiling, Western blot; samples treated with standard 0.1% SDS buffer at room temperature. On the technique in general: In western blotting, separated proteins are transferred to a membrane and probed.

For “RSV F single-chain double mutant with fibritin trimerization domain (SC-DM: N67I, S215P) (domain or fragment)”, the stoichiometry N in test [1] was 3. For “RSV F single-chain triple mutant with fibritin trimerization domain (SC-TM: N67I, S215P, E487Q) (domain or fragment)”, the stoichiometry N in test [2] came to 3.

In test [3], “Soluble, stabilized processed RSV F variant with fibritin motif (PR-TM: N67I, S215P, D486N) (domain or fragment)” had a percent monomerized by 0.1% SDS of 50%.

For orientation: stoichiometry N means a count of units in the complex or per binding partner.
